Numbering of substitutions follows the chain as printed. Values belong to the binder of their own block, whether it stands above or below them.
Experiments:
DAN-his (Sinobiological) = biological target: T1, DAN-his (Sinobiological) (human, UniProt P41271 17-181, limits assumed); experiment: ELISA on coated DAN-his; unit from the axis Ab(nM)
T1 construct: also called DAN (Sinobiological); human DAN-his
T1 sequence (looked up): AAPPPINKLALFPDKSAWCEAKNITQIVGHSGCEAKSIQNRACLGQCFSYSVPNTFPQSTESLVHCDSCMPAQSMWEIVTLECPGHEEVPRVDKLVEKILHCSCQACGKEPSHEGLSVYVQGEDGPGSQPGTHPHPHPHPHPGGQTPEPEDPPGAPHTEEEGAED
Experimental: (§1) Clear polystyrene plates (BEAVER) were coated with 100 μl/well of a 0.5 μg/ml human gremlin (ACRO) and DAN (Sinobiological) in high pH coating buffer overnight at 4° C. Then the plates were washed once on an automatic plate washer using PBS+0.1% Tween 20 (Sigma). 100 μl of block solution consisting of PBS+1% BSA+1% normal goat serum+0.5% Tween 20 (Sigma) was added to each well and incubated at room temperature for 2 hours. Then 100 ul of antibodies (hybridoma or chimeric antibody 36F5, chimeric antibody 67G11, chimeric antibody 42B9) in antibody dilution buffer containing PBS+1% BSA+1% normal goat serum+0.01% Tween 20 starting from 2 μg/ml (13.33 nM) and then 4 fold serial dilution were added to each well of the plate and incubated for 1 hours at room temperature. Afterward the plates were washed three times with 200 ul of PBS+0.1% Tween20 followed by adding 100 μl/well 1:10000 Goat anti mouse IgG-HRP or mouse anti-human IgG-HRP (abcam), and incubate for 1 hour at room temperature. They were then washed 3× with PBS+0.1% Tween20. Finally, 100 μl/well of TMB (InnoReagents) was added to each well and after 2 minutes add 50 ul of stop solution to each well. The plates were read on a Multiscan FC microplate reader (Thermo Scientific) at 450 nm.

HGREM1-His (ACRO) = biological target: T2, HGREM1-His (ACRO) (human, UniProt O60565 25-184); experiment: ELISA on coated Gremlin-his; unit from the axis Ab(nM)
T2 construct: Lys25-Asp184 of NP_037504 with C-terminal polyhistidine tag (ACRO GR1-H52H3); they are put here; also called hGREM1 (ACRO); human gremlin (ACRO)
T2 sequence: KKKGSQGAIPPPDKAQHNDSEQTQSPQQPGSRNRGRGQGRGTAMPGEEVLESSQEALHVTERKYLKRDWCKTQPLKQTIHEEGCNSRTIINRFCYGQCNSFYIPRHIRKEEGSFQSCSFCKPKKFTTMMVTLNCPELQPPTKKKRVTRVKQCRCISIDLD
Experimental: as §1

human COCO (R&D) = biological target: T3, human COCO (R&D) (human, UniProt Q8N907 23-189, limits assumed); experiment: ELISA on coated human COCO (R&D, 0.5ug/ml), anti-mouse IgG-HRP
T3 sequence (looked up): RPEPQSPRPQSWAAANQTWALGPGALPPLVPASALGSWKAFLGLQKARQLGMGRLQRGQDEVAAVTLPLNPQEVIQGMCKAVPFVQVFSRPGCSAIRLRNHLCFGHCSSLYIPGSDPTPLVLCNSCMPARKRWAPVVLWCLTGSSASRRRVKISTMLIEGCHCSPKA
Experimental: In addition, the specificity of the binding of 14E3 and a benchmark antibody was assessed with ELISA. Briefly, clear polystyrene plates (BEAVER) were coated with 100 μl/well of a […] hGREM1 (ACRO), or human gremlin-2 (R&D), human COCO (R&D) and human DAN protein (R&D) in high pH coating buffer overnight at 4° C. Then the plates were washed once on an automatic plate washer using PBS+0.1% Tween 20 (Sigma). 100 μl of block solution consisting of PBS+1% BSA+1% normal goat serum+0.5% Tween 20 (Sigma) was added to each well and incubated at room temperature for 2 hours. Then 100 ul of antibodies in antibody dilution buffer containing PBS+1% BSA+1% normal goat serum+0.01% Tween 20 starting from 2 μg/ml and then 5 fold serial dilution were added to each well of the plate and incubated for 1 hours at room temperature. Afterward the plates were washed three times with 200 ul of PBS+0.1% Tween20 followed by adding 100 μl/well 1:10000 Goat anti mouse IgG-HRP (Abcam), and incubate for 1 hour at room temperature. They were then washed 3× with PBS+0.1% Tween20. Finally, 100 µl/well of TMB (Pierce) was added to each well and after 5 minutes add 50 ul of stop solution to each well. The plates were read on a Multiscan FC microplate reader (Thermo Scientific) at […].

[1] = biological target: T4, human Gremlin_Q27P (C-terminal His-tag) (human, UniProt O60565 25-184); experiment: BLI (Octet): antibody loaded on AHC sensor, supernatant of the gremlin variant as analyte
T4 construct: culture supernatant used
T4 chain: T2 sequence with Q27P
Experimental: (§2) The supernatant for Gremlin WT and mutants to be tested were added in the Association Column of the plate, 100 ul per well. Media or KD buffer was used as a reference control. Put AHC sensors in the 1st Baseline Column for 60 s to get the 1st baseline, then in the Loading Column for 300 s to capture the Gremlin antibody. After that, put the sensors in the 2nd Baseline Column for 60 s to get the 2nd baseline. Then put them in the Association Column for 300 s to let Gremlin/Gremlin Ab associate completely, put the sensors in the dissociation Column for 300 s. Analyze the group data by ForteBio (Octet96)

[2] = biological target: T5, human Gremlin N33T (C-terminal His-tag) (human, UniProt O60565 25-184); experiment: as above
T5 construct: culture supernatant used
T5 chain: T2 sequence with N33T
Experimental: as §2

[3] = biological target: T6, human Gremlin_Q27P/N33T (C-terminal His-tag) (human, UniProt O60565 25-184 at identity 1.00)); experiment: as above
T6 construct: culture supernatant used
T6 chain: T2 sequence with Q27P, N33T
Experimental: as §2

EC50 (DAN-his (Sinobiological)): 0.0309 nM
EC50 (HGREM1-His (ACRO)): 0.0309 nM
B1: 36F5 (antibody, V domains shown)
VH: QVQLQQSGAELARPGASVKLSCKASGYSFTSSGIGWVKQRSGQGLEWIGEIYPRSGNTYNNEKFKGKATLTADKSSSTVYMELRSLTSEDSAVYFCVREAYSHHYYAMDYWGQGTSVTVFS
VL: DVLMTQTPLSLPVSLGGQASISCRSSQSLLHSNGNTYLEWYLQKPGQSPKLLIYKVSNRFSGVPDRLSGSGSGTDFTLKISRVEAEDLGVYYCFQGSHVPFTFGSGTKLEIN
notes: mouse hybridoma antibody; also called hybridoma 36F5

binding result (human COCO (R&D)): no binding (tested: 1 ug/ml)
binding result [1]: binds
binding result [2]: binds
binding result [3]: binds
B2: 14E3 (antibody, V domains shown)
VH: QIQLVQSGPELKKPGETVKISCKTSGSTFTTYGMAWMKQAPGKGLTWMGWINTLSGEPTYADDFKGRFAFSLKTSANTAYLQINNLKNEDAATYFCAREPMDYWGQGTSVIVSS
VL: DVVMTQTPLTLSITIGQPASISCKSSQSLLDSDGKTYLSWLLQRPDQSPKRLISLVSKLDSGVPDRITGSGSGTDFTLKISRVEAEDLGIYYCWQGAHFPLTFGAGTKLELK
notes: mouse hybridoma antibody; also called hybridoma 14E3; anti-gremlin1 antibody 14E3

— US20240294622A1 (SUZHOU TRANSCENTA THERAPEUTICS, published 2024)
